Experimental data reported in US20220002426A1 (BIOINVENT INTERNATIONAL, published 2022).
Where two headings read alike, the source gives them in different places.

T1: wild type, full length human TNFR2 (on cells) (human, UniProt P20333 23-461)
T1 construct: whole, on cells; also called hTNFR2; TNFRII
T1 sequence (looked up): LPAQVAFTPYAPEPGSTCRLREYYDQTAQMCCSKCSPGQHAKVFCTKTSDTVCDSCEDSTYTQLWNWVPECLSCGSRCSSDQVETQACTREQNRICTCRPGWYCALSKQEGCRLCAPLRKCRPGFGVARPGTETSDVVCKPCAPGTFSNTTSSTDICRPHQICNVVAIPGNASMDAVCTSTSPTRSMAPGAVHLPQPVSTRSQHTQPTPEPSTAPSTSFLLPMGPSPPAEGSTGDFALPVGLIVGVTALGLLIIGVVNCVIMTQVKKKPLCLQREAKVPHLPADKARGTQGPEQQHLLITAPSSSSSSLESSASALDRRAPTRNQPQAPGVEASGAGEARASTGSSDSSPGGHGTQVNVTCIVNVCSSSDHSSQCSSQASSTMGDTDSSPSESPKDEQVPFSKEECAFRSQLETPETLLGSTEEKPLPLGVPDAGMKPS

T2: wild type, full length murine TNFR2 (on cells) (mouse, UniProt P25119 23-474)
T2 construct: whole, on cells; also called mTNFR2; mouse TNFR2
T2 sequence (looked up): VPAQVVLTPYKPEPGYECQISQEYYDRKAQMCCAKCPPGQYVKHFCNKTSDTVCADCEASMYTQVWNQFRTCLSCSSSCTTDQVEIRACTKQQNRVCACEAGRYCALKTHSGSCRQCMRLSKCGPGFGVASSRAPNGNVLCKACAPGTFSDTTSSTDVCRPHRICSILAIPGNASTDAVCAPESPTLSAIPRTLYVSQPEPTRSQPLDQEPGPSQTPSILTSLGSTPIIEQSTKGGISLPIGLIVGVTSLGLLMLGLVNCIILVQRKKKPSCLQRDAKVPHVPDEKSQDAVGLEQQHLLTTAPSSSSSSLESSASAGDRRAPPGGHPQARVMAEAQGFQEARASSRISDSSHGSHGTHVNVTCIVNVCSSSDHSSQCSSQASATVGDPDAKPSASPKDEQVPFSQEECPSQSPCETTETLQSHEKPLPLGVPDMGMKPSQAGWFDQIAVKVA

T3: recombinant human TNFR2-Fc protein (Sino Biological) (human, UniProt P20333 23-257, limits assumed)
T3 construct: bought; also called human TNFR2 protein; not shown: Fc part of the bought fusion protein; not described
T3 sequence (looked up): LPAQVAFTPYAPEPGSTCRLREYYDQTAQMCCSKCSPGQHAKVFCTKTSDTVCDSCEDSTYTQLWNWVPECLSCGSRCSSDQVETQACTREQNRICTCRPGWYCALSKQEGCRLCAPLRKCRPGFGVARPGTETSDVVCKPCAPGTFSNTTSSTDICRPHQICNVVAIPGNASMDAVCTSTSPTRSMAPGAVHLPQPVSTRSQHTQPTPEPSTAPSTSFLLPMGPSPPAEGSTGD

T4: hTNFRII (Sinobioologicals Cat nr10414-H08H) (human, UniProt P20333 23-257)
T4 construct: bought; also called immobilized TNFR2
T4 sequence (looked up): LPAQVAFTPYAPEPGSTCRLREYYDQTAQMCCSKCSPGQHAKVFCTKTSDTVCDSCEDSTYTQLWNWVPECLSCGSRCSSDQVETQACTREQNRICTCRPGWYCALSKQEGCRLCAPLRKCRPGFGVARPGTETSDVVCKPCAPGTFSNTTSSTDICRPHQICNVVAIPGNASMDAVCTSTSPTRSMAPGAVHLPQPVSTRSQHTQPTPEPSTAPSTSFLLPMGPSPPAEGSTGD

T5: recombinant mouse TNFR2-Fc protein (Sino Biological) (mouse, UniProt P25119 23-258, limits assumed)
T5 construct: bought; also called mTNFR2 protein; mTNFR2; not shown: Fc part of the bought fusion protein; not described
T5 sequence (looked up): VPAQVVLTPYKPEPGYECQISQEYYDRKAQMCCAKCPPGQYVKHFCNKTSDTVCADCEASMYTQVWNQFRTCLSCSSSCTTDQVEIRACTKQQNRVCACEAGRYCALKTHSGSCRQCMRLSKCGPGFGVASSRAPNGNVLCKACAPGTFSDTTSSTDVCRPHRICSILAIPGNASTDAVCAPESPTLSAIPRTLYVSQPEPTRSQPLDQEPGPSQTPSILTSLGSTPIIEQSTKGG

T6: mTNFRII (Sinobioologicals Cat No. 50128 M08H) (mouse, UniProt P25119 23-258, limits assumed)
T6 construct: bought
T6 sequence (looked up): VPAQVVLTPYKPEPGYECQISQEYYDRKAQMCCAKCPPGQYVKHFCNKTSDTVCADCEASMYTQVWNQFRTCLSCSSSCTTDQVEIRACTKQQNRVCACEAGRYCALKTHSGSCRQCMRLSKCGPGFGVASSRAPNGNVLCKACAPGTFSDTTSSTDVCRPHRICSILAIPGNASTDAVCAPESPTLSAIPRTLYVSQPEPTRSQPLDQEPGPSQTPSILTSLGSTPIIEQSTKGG


How the values were obtained:
[1] = target: T1, wild type, full length human TNFR2 (on …); experiment: FACS, activated CD4+ T cells
Procedure: (§1) The ability and affinity of TNFR2 n-CoDeR® antibodies to bind TNFR2 expressed on cells were obtained using in vitro activated CD4⁺ T cells. Human CD4⁺ T cells were stimulated with 50 ng/ml rhIL-2 (R&D systems) and Dynabeads® T-Activator CD3/CD28 for T-Cell Expansion and Activation (Gibco) 2-3 days at 37 degrees. […] Cells were then incubated with an APC conjugated a-human IgG secondary ab (Jackson) followed by analysis by flow cytometry (FACSVerse, BD).

[2] = target: T2, wild type, full length murine TNFR2 (on …); experiment: FACS, transfected HEK293 cells
[3] = target: T3, recombinant human TNFR2-Fc protein …; experiment: ELISA, coated TNFR2-Fc
Procedure: (§2) 96-well plates (Lumitrac 600 LIA plate, Greiner) were coated overnight at 4° C. with recombinant human or mouse TNFR2-Fc protein (Sino Biological) at 1 pmol/well. After washing, titrated doses of anti-TNFR2 mAbs from 20 μg/ml to 0.1 ng/ml (133 nM to 1 pM) were allowed to bind for 1 hour. Plates were then washed again, and bound antibodies were detected with an anti-human-F(ab)-HRP secondary antibody (Jackson ImmunoResearch) diluted in 50 ng/ml. Super Signal ELISA Pico (Thermo Scientific) was used as substrate and the plates were analyzed using Tecan Ultra Microplate reader.

[4] = target: T4, hTNFRII (Sinobioologicals Cat …); experiment: blocking ELISA, coated hTNFRII, competitor hTNF-α-bio 5 nM
Procedure: (§3) 96-well plates were coated with hTNFRII (Sinobioologicals Cat nr10414-H08H) or mTNFRII (Sinobioologicals Cat No. 50128 M08H) at 2.5 pmol/well in ELISA coating buffer (0.1 M sodium carbonate pH 9.5) and incubated overnight at 4° C. After washing in ELISA wash buffer (PBS with 0.05% Tween20), the plates were incubated under slow agitation for 1 h in room temperature with n-CoDeR® mAbs at 10 μg/ml (one-dose ELISA) or 33 nM and subsequent 1:2 dilutions (titration ELISA) in block buffer containing 0.45% fish gelatin. […] Thereafter, plates were washed. For the human ELISAs, Streptavidin-HRP (Jackson Cat No. 016-030-084) diluted 1:2000 in block buffer were added and again incubated for 1 h at room temperature followed by washes first in ELISA buffer and then in Tris buffer (pH 9.8). The substrate (Super Signal ELISA Pico from Thermo Scientific Cat. No. 37069) were thereafter diluted according to the manufacturers instruction, added to the wells and incubated in darkness for 10 min before reading in a Tecan Ultra. […] After washing, anti-Rabbit-HRP diluted 1:10 000 in block buffer was added and again incubated for 1 h at room temperature. Substrate adding and reading were performed as above.

[5] = target: T1, wild type, full length human TNFR2 (on …); experiment: FACS, activated CD4+ T cells; remark: listed apart in the source
Procedure: as §1

[6] = target: T2, wild type, full length murine TNFR2 (on …); experiment: FACS, activated mouse CD4+ T cells
[7] = target: T5, recombinant mouse TNFR2-Fc protein …; experiment: ELISA, coated TNFR2-Fc
Procedure: as §2

[8] = target: T6, mTNFRII (Sinobioologicals Cat No. 50128 …); experiment: ELISA, coated mTNFRII, mTNF-α 2 nM, rabbit anti-mTNF-α and anti-rabbit-HRP
Procedure: as §3

Binder | EC50 [1] [nM] | binding result [2] | EC50 [3] [nM] | EC50 [4] [nM] | EC50 [5] [nM] | EC50 [6] [nM] | EC50 [7] [nM] | binding result [8]
001-F02 (antibody, V domains shown, IgG; In the MDSC assay tested as hIgG1, hIgG2 and N297Q) VH: EVQLLESGGGLVQPGGSLRLSCAASGFTFSDYYMSWVRQAPGKGLEWVANINTDGSEKYYLDSVKGRFTISRDNSKNTLYLQMNSLRAEDTAVYYCAREEYGAFDIWGQGTLVTVSS VL: QSVLTQPPSASGTPGQRVTISCSGSSSNIGSNTVNWYQQLPGTAPKLLIYDNNKRPSGVPDRFSGSKSGTSASLAISGLRSEDEADYYCQSFDRGLSGSIVFGGGTKLTVLG | 0.79 | no binding | 0.31 |  |  |  |  | 
004-H02 (antibody, V domains shown, IgG) VH: EVQLLESGGGLVQPGGSLRLSCAASGFTFDDYGMSWVRQAPGKGLEWVSTIYSGDNAYYGASVRGRFTISRDNSKNTLYLQMNSLRAEDTAVYYCARVYSSSWRKRAFDIWGQGTLVTVSS VL: not shown | 0.59 |  | 0.2 | 0.4 | 0.6 |  |  | 
001-F06 (antibody, V domains shown, IgG) VH: EVQLLESGGGLVQPGGSLRLSCAASGFTFSSYAMHWVRQAPGKGLEWVSAISGGATTTYYADSVKGRFTISRDNSKNTLYLQMNSLRAEDTAVYYCAKGGTGDPYYFDYWGQGTLVTVSS VL: QSVLTQPPSASGTPGQRVTISCTGSSSNIGAGYDVHWYQQLPGTAPKLLIYRNNQRPSGVPDRFSGSKSGTSASLAISGLRSEDEADYYCAARDDGLSGPVFGGGTKLTVLG | 2.5 | no binding | 0.15 |  |  |  |  | 
005-A05 (antibody, V domains shown, also called 5-A05 (mouse)) VH: EVQLLESGGGLVQPGGSLRLSCAASGFTFSSYAMSWVRQAPGKGLEWVSTIIGSGANTWYADSVKGRFTISRDNSKNTLYLQMNSLRAEDTAVYYCARHEGYYYYGMDVWGQGTLVTVSS VL: QSVLTQPPSASGTPGQRVTISCTGSSSNIGAGYVVHWYQQLPGTAPKLLIYGNSNRPSGVPDRFSGSKSGTSASLAISGLRSEDEADYYCAAWDDSLNGRVFGGGTKLTVLG |  |  |  |  |  | 0.11 | 1.4 | 
001-G10 (antibody, V domains shown, IgG) VH: EVQLLESGGGLVQPGGSLRLSCAASGFTFSAYGMHWVRQAPGKGLEWVAVVSYDGREKHYADSVKGRFTISRDNSKNTLYLQMNSLRAEDTAVYYCARSDGGYDSDSGYYWGQGTLVTVSS VL: QSVLTQPPSASGTPGQRVTISCSGSTSNIGSNFVYWYQQLPGTAPKLLIYDNNKRPSGVPDRFSGSKSGTSASLAISGLRSEDEADYYCSSYAYSDNILFGGGTKLTVLG | 3.3 | no binding | 0.29 | 1.6 |  |  |  | 
mTNF-α (Gibco Cat. No. PMC3014) (ligand, mouse, UniProt P06804 80-235, looked up) LRSSSQNSSDKPVAHVVANHQVEEQLEWLSQRANALLANGMDLKDNQLVVPADGLYLVYSQVLFKGQGCPDYVLLTHTVSRFAISYQEKVNLLSAVKSPCPKDTPEGAELKPWYEPIYLGGVFQLEKGDQLSAEVNLPKYLDFAESGQVYFGVIAL |  |  |  |  |  |  |  | binds
005-B08 (antibody, V domains shown, IgG) VH: EVQLLESGGGLVQPGGSLRLSCAASGFTFSDYYMSWIRQAPGKGLEWVAIISYDGGGKYFADPVKGRFTISRDNSKNTLYLQMNSLRAEDTAVYYCARYYGDGGFDPWGQGTLVTVSS VL: not shown | 1.2 | no binding | 0.17 | 0.3 |  |  |  | 
001-C03 (antibody, V domains shown, IgG; also called 1-003; 001-0O3) VH: EVQLLESGGGLVQPGGSLRLSCAASGFTFSNAWMSWVRQAPGKGLEWVSAISVSGINTYYADSVKGRFTISRDNSKNTLYLQMNSLRAEDTAVYYCARDTGSLGVDYWGQGTLVTVSS VL: QSVLTQPPSASGTPGQRVTISCSGSSSNIGSNTVNWYQQLPGTAPKLLIYRNNQRPSGVPDRFSGSKSGTSASLAISGLRSEDEADYYCQSYDSSLSISVFGGGTKLTVLG | 53 |  | 0.75 |  | 52.7 |  |  | 
